According to patent US20250073311A1, “DOSAGE REGIME” (ZEALAND PHARMA A/S, priority 2021, published 2025):
Numbered stars: 1 amine (or outer) side, 2 acyl side, 3 side chain; on linkers, the order of the positions; unused ones are H or OH. Square brackets hold non-standard residues; d marks the D form. Side chains are listed from the residue outwards. * marks the point of attachment. C20 diacid = O=C(O)CCCCCCCCCCCCCCCCCCC(=O)*; C18 diacid = O=C(O)CCCCCCCCCCCCCCCCC(=O)*; γGlu = O=C(O)[C@H](CCC(=O)[*:2])N[*:1]; Stearoyl = CCCCCCCCCCCCCCCCCC(=O)*; AEEA = NCCOCCOCC(=O)O; Aib = CC(C)(N)C(=O)O

What was measured:
[1] = target: human glucagon-like peptide 1 receptor (GLP-1R) (human, UniProt P43220); assay: cell-based or functional assay
[2] = target: T1, human GLP-2 receptor (hGLP2-R) (human, UniProt O95838); assay: cell-based or functional assay
T1 sequence: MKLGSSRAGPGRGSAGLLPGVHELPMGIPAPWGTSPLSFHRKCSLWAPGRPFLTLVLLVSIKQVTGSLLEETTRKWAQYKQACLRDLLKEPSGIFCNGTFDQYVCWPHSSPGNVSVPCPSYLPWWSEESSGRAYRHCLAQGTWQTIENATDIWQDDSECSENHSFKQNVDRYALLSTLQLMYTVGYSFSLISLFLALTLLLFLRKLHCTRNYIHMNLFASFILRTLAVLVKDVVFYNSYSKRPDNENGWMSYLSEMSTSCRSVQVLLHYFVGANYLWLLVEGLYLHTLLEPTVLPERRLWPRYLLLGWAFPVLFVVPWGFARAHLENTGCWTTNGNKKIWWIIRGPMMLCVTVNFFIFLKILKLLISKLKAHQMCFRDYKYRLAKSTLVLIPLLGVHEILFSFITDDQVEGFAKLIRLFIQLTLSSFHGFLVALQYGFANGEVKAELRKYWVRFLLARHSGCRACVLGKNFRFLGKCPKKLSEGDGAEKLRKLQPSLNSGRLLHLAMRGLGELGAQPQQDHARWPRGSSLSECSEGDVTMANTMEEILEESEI

B1: Compound 38 (peptide)
peptide: H-H[Aib]EGTFSSELATILDEQAARDFIAWLIAHKITD[dK][dK][dK][dK][dK][dK]([γGlu-C18 diacid])-NH2
SMILES: CC[C@H](C)[C@H](NC(=O)[C@H](CC(C)C)NC(=O)[C@H](Cc1c[nH]c2ccccc12)NC(=O)[C@H](C)NC(=O)[C@@H](NC(=O)[C@H](Cc1ccccc1)NC(=O)[C@H](CC(=O)O)NC(=O)[C@H](CCCNC(=N)N)NC(=O)[C@H](C)NC(=O)[C@H](C)NC(=O)[C@H](CCC(N)=O)NC(=O)[C@H](CCC(=O)O)NC(=O)[C@H](CC(=O)O)NC(=O)[C@H](CC(C)C)NC(=O)[C@@H](NC(=O)[C@@H](NC(=O)[C@H](C)NC(=O)[C@H](CC(C)C)NC(=O)[C@H](CCC(=O)O)NC(=O)[C@H](CO)NC(=O)[C@H](CO)NC(=O)[C@H](Cc1ccccc1)NC(=O)[C@@H](NC(=O)CNC(=O)[C@H](CCC(=O)O)NC(=O)C(C)(C)NC(=O)[C@@H](N)Cc1c[nH]cn1)[C@@H](C)O)[C@@H](C)O)[C@@H](C)CC)[C@@H](C)CC)C(=O)N[C@@H](C)C(=O)N[C@@H](Cc1c[nH]cn1)C(=O)N[C@@H](CCCCN)C(=O)N[C@H](C(=O)N[C@H](C(=O)N[C@@H](CC(=O)O)C(=O)N[C@H](CCCCN)C(=O)N[C@H](CCCCN)C(=O)N[C@H](CCCCN)C(=O)N[C@H](CCCCN)C(=O)N[C@H](CCCCN)C(=O)N[C@H](CCCCNC(=O)CC[C@H](NC(=O)CCCCCCCCCCCCCCCCC(=O)O)C(=O)O)C(N)=O)[C@@H](C)O)[C@@H](C)CC
[1]
  EC50 GLP-1 (nM), cAMP AlphaScreen: 0.25 nM
[2]
  EC50 GLP-2 (nM), cAMP AlphaScreen: 0.89 nM

B2: Compound 36 (peptide)
peptide: H-H[Aib]EGSFTSELATILDK(Stearoyl)QAARDFIAWLIQYKITD-OH
SMILES: CCCCCCCCCCCCCCCCCC(=O)NCCCC[C@H](NC(=O)[C@H](CC(=O)O)NC(=O)[C@H](CC(C)C)NC(=O)[C@@H](NC(=O)[C@@H](NC(=O)[C@H](C)NC(=O)[C@H](CC(C)C)NC(=O)[C@H](CCC(=O)O)NC(=O)[C@H](CO)NC(=O)[C@@H](NC(=O)[C@H](Cc1ccccc1)NC(=O)[C@H](CO)NC(=O)CNC(=O)[C@H](CCC(=O)O)NC(=O)C(C)(C)NC(=O)[C@@H](N)Cc1c[nH]cn1)[C@@H](C)O)[C@@H](C)O)[C@@H](C)CC)C(=O)N[C@@H](CCC(N)=O)C(=O)N[C@@H](C)C(=O)N[C@@H](C)C(=O)N[C@@H](CCCNC(=N)N)C(=O)N[C@@H](CC(=O)O)C(=O)N[C@@H](Cc1ccccc1)C(=O)N[C@H](C(=O)N[C@@H](C)C(=O)N[C@@H](Cc1c[nH]c2ccccc12)C(=O)N[C@@H](CC(C)C)C(=O)N[C@H](C(=O)N[C@@H](CCC(N)=O)C(=O)N[C@@H](Cc1ccc(O)cc1)C(=O)N[C@@H](CCCCN)C(=O)N[C@H](C(=O)N[C@H](C(=O)N[C@@H](CC(=O)O)C(=O)O)[C@@H](C)O)[C@@H](C)CC)[C@@H](C)CC)[C@@H](C)CC
[1]
  EC50 GLP-1 (nM), cAMP AlphaScreen: 0.32 nM
[2]
  EC50 GLP-2 (nM), cAMP AlphaScreen: 3.2 nM

B3: Compound 33 (peptide)
peptide: H-H[Aib]EGSFTSELATILDK([AEEA-γGlu-C18 diacid])QAARDFIAWLYQHKITD-OH
SMILES: CC[C@H](C)[C@H](NC(=O)[C@H](Cc1ccccc1)NC(=O)[C@H](CC(=O)O)NC(=O)[C@H](CCCNC(=N)N)NC(=O)[C@H](C)NC(=O)[C@H](C)NC(=O)[C@H](CCC(N)=O)NC(=O)[C@H](CCCCNC(=O)COCCOCCNC(=O)CC[C@H](NC(=O)CCCCCCCCCCCCCCCCC(=O)O)C(=O)O)NC(=O)[C@H](CC(=O)O)NC(=O)[C@H](CC(C)C)NC(=O)[C@@H](NC(=O)[C@@H](NC(=O)[C@H](C)NC(=O)[C@H](CC(C)C)NC(=O)[C@H](CCC(=O)O)NC(=O)[C@H](CO)NC(=O)[C@@H](NC(=O)[C@H](Cc1ccccc1)NC(=O)[C@H](CO)NC(=O)CNC(=O)[C@H](CCC(=O)O)NC(=O)C(C)(C)NC(=O)[C@@H](N)Cc1c[nH]cn1)[C@@H](C)O)[C@@H](C)O)[C@@H](C)CC)C(=O)N[C@@H](C)C(=O)N[C@@H](Cc1c[nH]c2ccccc12)C(=O)N[C@@H](CC(C)C)C(=O)N[C@@H](Cc1ccc(O)cc1)C(=O)N[C@@H](CCC(N)=O)C(=O)N[C@@H](Cc1c[nH]cn1)C(=O)N[C@@H](CCCCN)C(=O)N[C@H](C(=O)N[C@H](C(=O)N[C@@H](CC(=O)O)C(=O)O)[C@@H](C)O)[C@@H](C)CC
[1]
  EC50 GLP-1 (nM), cAMP AlphaScreen: 0.85 nM
[2]
  EC50 GLP-2 (nM), cAMP AlphaScreen: 0.072 nM

B4: Compound 40 (peptide)
peptide: H-H[Aib]EGSFTSELATILDEQAARDFIAWLIEHKITD[dK][dK][dK][dK][dK][dK]([γGlu-C18 diacid])-NH2
SMILES: CC[C@H](C)[C@H](NC(=O)[C@H](Cc1ccccc1)NC(=O)[C@H](CC(=O)O)NC(=O)[C@H](CCCNC(=N)N)NC(=O)[C@H](C)NC(=O)[C@H](C)NC(=O)[C@H](CCC(N)=O)NC(=O)[C@H](CCC(=O)O)NC(=O)[C@H](CC(=O)O)NC(=O)[C@H](CC(C)C)NC(=O)[C@@H](NC(=O)[C@@H](NC(=O)[C@H](C)NC(=O)[C@H](CC(C)C)NC(=O)[C@H](CCC(=O)O)NC(=O)[C@H](CO)NC(=O)[C@@H](NC(=O)[C@H](Cc1ccccc1)NC(=O)[C@H](CO)NC(=O)CNC(=O)[C@H](CCC(=O)O)NC(=O)C(C)(C)NC(=O)[C@@H](N)Cc1c[nH]cn1)[C@@H](C)O)[C@@H](C)O)[C@@H](C)CC)C(=O)N[C@@H](C)C(=O)N[C@@H](Cc1c[nH]c2ccccc12)C(=O)N[C@@H](CC(C)C)C(=O)N[C@H](C(=O)N[C@@H](CCC(=O)O)C(=O)N[C@@H](Cc1c[nH]cn1)C(=O)N[C@@H](CCCCN)C(=O)N[C@H](C(=O)N[C@H](C(=O)N[C@@H](CC(=O)O)C(=O)N[C@H](CCCCN)C(=O)N[C@H](CCCCN)C(=O)N[C@H](CCCCN)C(=O)N[C@H](CCCCN)C(=O)N[C@H](CCCCN)C(=O)N[C@H](CCCCNC(=O)CC[C@H](NC(=O)CCCCCCCCCCCCCCCCC(=O)O)C(=O)O)C(N)=O)[C@@H](C)O)[C@@H](C)CC)[C@@H](C)CC
[1]
  EC50 GLP-1 (nM), cAMP AlphaScreen: 0.074 nM
[2]
  EC50 GLP-2 (nM), cAMP AlphaScreen: 0.5 nM

B5: Compound 39 (peptide)
peptide: H-H[Aib]EGTFTSELATILDEQAARDFIAWLIAHKITD[dK][dK][dK][dK][dK][dK]([γGlu-C18 diacid])-NH2
SMILES: CC[C@H](C)[C@H](NC(=O)[C@H](CC(C)C)NC(=O)[C@H](Cc1c[nH]c2ccccc12)NC(=O)[C@H](C)NC(=O)[C@@H](NC(=O)[C@H](Cc1ccccc1)NC(=O)[C@H](CC(=O)O)NC(=O)[C@H](CCCNC(=N)N)NC(=O)[C@H](C)NC(=O)[C@H](C)NC(=O)[C@H](CCC(N)=O)NC(=O)[C@H](CCC(=O)O)NC(=O)[C@H](CC(=O)O)NC(=O)[C@H](CC(C)C)NC(=O)[C@@H](NC(=O)[C@@H](NC(=O)[C@H](C)NC(=O)[C@H](CC(C)C)NC(=O)[C@H](CCC(=O)O)NC(=O)[C@H](CO)NC(=O)[C@@H](NC(=O)[C@H](Cc1ccccc1)NC(=O)[C@@H](NC(=O)CNC(=O)[C@H](CCC(=O)O)NC(=O)C(C)(C)NC(=O)[C@@H](N)Cc1c[nH]cn1)[C@@H](C)O)[C@@H](C)O)[C@@H](C)O)[C@@H](C)CC)[C@@H](C)CC)C(=O)N[C@@H](C)C(=O)N[C@@H](Cc1c[nH]cn1)C(=O)N[C@@H](CCCCN)C(=O)N[C@H](C(=O)N[C@H](C(=O)N[C@@H](CC(=O)O)C(=O)N[C@H](CCCCN)C(=O)N[C@H](CCCCN)C(=O)N[C@H](CCCCN)C(=O)N[C@H](CCCCN)C(=O)N[C@H](CCCCN)C(=O)N[C@H](CCCCNC(=O)CC[C@H](NC(=O)CCCCCCCCCCCCCCCCC(=O)O)C(=O)O)C(N)=O)[C@@H](C)O)[C@@H](C)CC
[1]
  EC50 GLP-1 (nM), cAMP AlphaScreen: 0.044 nM
[2]
  EC50 GLP-2 (nM), cAMP AlphaScreen: 0.98 nM

B6: Compound 34 (peptide)
peptide: H-H[Aib]EGSFTSELATILDK([AEEA-AEEA-γGlu-C20 diacid])QAARDFIAWLKQHKITD-OH
SMILES: CC[C@H](C)[C@H](NC(=O)[C@H](Cc1ccccc1)NC(=O)[C@H](CC(=O)O)NC(=O)[C@H](CCCNC(=N)N)NC(=O)[C@H](C)NC(=O)[C@H](C)NC(=O)[C@H](CCC(N)=O)NC(=O)[C@H](CCCCNC(=O)COCCOCCNC(=O)COCCOCCNC(=O)CC[C@H](NC(=O)CCCCCCCCCCCCCCCCCCC(=O)O)C(=O)O)NC(=O)[C@H](CC(=O)O)NC(=O)[C@H](CC(C)C)NC(=O)[C@@H](NC(=O)[C@@H](NC(=O)[C@H](C)NC(=O)[C@H](CC(C)C)NC(=O)[C@H](CCC(=O)O)NC(=O)[C@H](CO)NC(=O)[C@@H](NC(=O)[C@H](Cc1ccccc1)NC(=O)[C@H](CO)NC(=O)CNC(=O)[C@H](CCC(=O)O)NC(=O)C(C)(C)NC(=O)[C@@H](N)Cc1c[nH]cn1)[C@@H](C)O)[C@@H](C)O)[C@@H](C)CC)C(=O)N[C@@H](C)C(=O)N[C@@H](Cc1c[nH]c2ccccc12)C(=O)N[C@@H](CC(C)C)C(=O)N[C@@H](CCCCN)C(=O)N[C@@H](CCC(N)=O)C(=O)N[C@@H](Cc1c[nH]cn1)C(=O)N[C@@H](CCCCN)C(=O)N[C@H](C(=O)N[C@H](C(=O)N[C@@H](CC(=O)O)C(=O)O)[C@@H](C)O)[C@@H](C)CC
[1]
  EC50 GLP-1 (nM), cAMP AlphaScreen: 0.28 nM
[2]
  EC50 GLP-2 (nM), cAMP AlphaScreen: 0.13 nM

B7: Compound 35 (peptide)
peptide: H-H[Aib]EGSFTSELATILDK([AEEA-AEEA-AEEA-iso‑Lys-C20 diacid])QAARDFIAWLIQQKITD-OH
[1]
  EC50 GLP-1 (nM), cAMP AlphaScreen: 0.099 nM
[2]
  EC50 GLP-2 (nM), cAMP AlphaScreen: 0.3 nM
